In patent US9738911B2, “Methods of producing 7-carbon chemicals via pyruvate and succinate semialdehyde aldol condensation” (INVISTA North America S.a r.l., priority 2012, dated 2017):

B1: SEQ ID NO 4: Segniliparus rugosus carboxylate reductase (Genbank Accession No. EFV 11917.1) (protein, listed as Segniliparus rugosus)
chain: MGDGEERAKRFFQRIGELSATDPQFAAAAPDPAVVEAVSDPSLSFTRYLDTLMRGYAERPALAHRVGAGYETISYGELWARVGAIAAAWQADGLAPGDFVATVGFTSPDYVAVDLAAARSGLVSVPLQAGASLAQLVGILEETEPKVLAASASSLEGAVACALAAPSVQRLVVFDLRGPDASESAADERRGALADAEEQLARAGRAVVVETLADLAARGEALPEAPLFEPAEGEDPLALLIYTSGSTGAPKGAMYSQRLVSQLWGRTPVVPGMPNISLHYMPLSHSYGRAVLAGALSAGGTAHFTANSDLSTLFEDIALARPTFLALVPRVCEMLFQESQRGQDVAELRERVLGGRLLVAVCGSAPLSPEMRAFMEEVLGFPLLDGYGSTEALGVMRNGIIQRPPVIDYKLVDVPELGYRTTDKPYPRGELCIRSTSLISGYYKRPEITAEVFDAQGYYKTGDVMAEIAPDHLVYVDRSKNVLKLSQGEFVAVAKLEAAYGTSPYVKQIFVYGNSERSFLLAVVVPNAEVLGARDQEEAKPLIAASLQKIAKEAGLQSYEVPRDFLIETEPFTTQNGLLSEVGKLLRPKLKARYGEALEARYDEIAHGQADELRALRDGAGQRPVVETVVRAAVAISGSEGAEVGPEANFADLGGDSLSALSLANLLHDVFEVEVPVRIIIGPTASLAGIAKHIEAERAGASAPTAASVHGAGATRIRASELTLEKFLPEDLLAAAKGLPAADQVRTVLLTGANGWLGRFLALEQLERLARSGQDGGKLICLVRGKDAAAARRRIEETLGTDPALAARFAELAEGRLEVVPGDVGEPKFGLDDAAWDRLAEEVDVIVHPAALVNHVLPYHQLFGPNVVGTAEIIRLAITAKRKPVTYLSTVAVAAGVEPSSFEEDGDIRAVVPERPLGDGYANGYGNSKWAGEVLLREAHELVGLPVAVFRSDMILAHTRYTGQLNVPDQFTRLVLSLLATGIAPKSFYQQGAAGERQRAHYDGIPVDFTAEAITTLGAEPSWFDGGAGFRSFDVFNPHHDGVGLDEFVDWLIEAGHPISRIDDHKEWFARFETAVRGLPEAQRQHSLLPLLRAYSFPHPPVDGSVYPTGKFQGAVKAAQVGSDHDVPHLGKALIVKYADDLKALGLL
B2: SEQ ID NO 7: Segniliparus rotundus carboxylate reductase (Genbank Accession No. ADG98140.1) (protein, listed as Segniliparus rotundus)
chain: MTQSHTQGPQASAAHSRLARRAAELLATDPQAAATLPDPEVVRQATRPGLRLAERVDAILSGYADRPALGQRSFQTVKDPITGRSSVELLPTFDTITYRELRERATAIASDLAHHPQAPAKPGDFLASIGFISVDYVAIDIAGVFAGLTAVPLQTGATLATLTAITAETAPTLFAASIEHLPTAVDAVLATPSVRRLLVFDYRAGSDEDREAVEAAKRKIADAGSSVLVDVLDEVIARGKSAPKAPLPPATDAGDDSLSLLIYTSGSTGTPKGAMYPERNVAHFWGGVWAAAFDEDAAPPVPAINITFLPLSHVASRLSLMPTLARGGLMHFVAKSDLSTLFEDLKLARPTNLFLVPRVVEMLYQHYQSELDRRGVQDGTREAEAVKDDLRTGLLGGRILTAGFGSAPLSAELAGFIESLLQIHLVDGYGSTEAGPVWRDGYLVKPPVTDYKLIDVPELGYFSTDSPHPRGELAIKTQTILPGYYKRPETTAEVFDEDGFYLTGDVVAQIGPEQFAYVDRRKNVLKLSQGEFVTLAKLEAAYSSSPLVRQLFVYGSSERSYLLAVIVPTPDALKKFGVGEAAKAALGESLQKIARDEGLQSYEVPRDFIIETDPFTVENGLLSDARKSLRPKLKEHYGERLEAMYKELADGQANELRDIRRGVQQRPTLETVRRAAAAMLGASAAEIKPDAHFTDLGGDSLSALTFSNFLHDLFEVDVPVGVIVSAANTLGSVAEHIDAQLAGGRARPTFATVHGKGSTTIKASDLTLDKFIDEQTLEAAKHLPKPADPPRTVLLTGANGWLGRFLALEWLERLAPAGGKLITIVRGKDAAQAKARLDAAYESGDPKLAGHYQDLAATTLEVLAGDFSEPRLGLDEATWNRLADEVDFISHPGALVNHVLPYNQLFGPNVAGVAEIIKLAITTRIKPVTYLSTVAVAAGVEPSALDEDGDIRTVSAERSVDEGYANGYGNSKWGGEVLLREAHDRTGLPVRVFRSDMILAHQKYTGQVNATDQFTRLVQSLLATGLAPKSFYELDAQGNRQRAHYDGIPVDFTAESITTLGGDGLEGYRSYNVFNPHRDGVGLDEFVDWLIEAGHPITRIDDYDQWLSRFETSLRGLPESKRQASVLPLLHAFARPGPAVDGSPFRNTVFRTDVQKAKIGAEHDIPHLGKALVLKYADDIKQLGLL
B3: gene product of tesB: Escherichia coli thioesterase encoded by tesB (GenBank Accession No. AAA24665.1) (protein, listed as Escherichia coli)
chain: MSQALKNLLTLLNLEKIEEGLFRGQSEDLGLRQVFGGQVVGQALYAAKETVPEERLVHSFHSYFLRPGDSKKPIIYDVETLRDGNSFSARRVAAIQNGKPIFYMTASFQAPEAGFEHQKTMPSAPAPDGLPSETQIAQSLAHLLPPVLKDKFICDRPLEVRPVEFHNPLKGHVAEPHRQVWIRANGSVPDDLRVHQYLLGYASDLNFLPVALQPHGIGFLEPGIQIATIDHSMWFHRPFNLNEWLLYSVESTSASSARGFVRGEFYTQDGVLVASTVQEGVMRNHN

Legend:
Type in all cases: biochemical
[1] = Carboxylate reductase activity assay, pimelate to pimelate semialdehyde; settings: 2 mM pimelate, 1 mM ATP, 1 mM NADPH, enhanced by sfp gene product, room temperature, 20 min; against empty vector control (FIG. 10)
Description: A sequence encoding a HIS-tag was added to the genes from Segniliparus rugosus and Segniliparus rotundus that encode the carboxylate reductases of SEQ ID NOs: 4 and 7, respectively (see FIGS. 7C and 7F), such that N-terminal HIS tagged carboxylate reductases could be produced. Each of the modified genes was cloned into a pET Duet expression vector along with a sfp gene encoding a HIS-tagged phosphopantetheine transferase from Bacillus subtilis, both under the T7 promoter. Each expression vector was transformed into a BL21[DE3] E. coli host and the resulting recombinant E. coli strains were cultivated at 37° C. in a 250 mL shake flask culture containing 50 mL LB media and antibiotic selection pressure, with shaking at 230 rpm. Each culture was induced overnight at 37° C. using an auto-induction media.
The pellet from each induced shake flask culture was harvested via centrifugation. Each pellet was resuspended and lysed via sonication, and the cell debris was separated from the supernatant via centrifugation. […]
Enzyme activity assays (i.e., from pimelate to pimelate semialdehyde) were performed in triplicate in a buffer composed of a final concentration of 50 mM HEPES buffer (pH=7.5), 2 mM pimelate, 10 mM MgCl, 1 mM ATP and 1 mM NADPH. […] The consumption of NADPH was monitored by absorbance at 340 nm.

[2] = Carboxylate reductase activity assay, N7-acetyl-7-aminoheptanoate to N7-acetyl-7-aminoheptanal; settings: 2 mM N7-acetyl-7-aminoheptanoate, 1 mM ATP, 1 mM NADPH, enhanced by sfp gene product, room temperature, 20 min; against empty vector control (FIG. 12)
Description: The activity of each of the N-terminal His-tagged carboxylate reductases of SEQ ID NOs: 3, 6, and 7 (see Examples 4, and FIGS. 7B, 7E, and 7F) for converting N7-acetyl-7-aminoheptanoate to N7-acetyl-7-aminoheptanal was assayed in triplicate in a buffer composed of a final concentration of 50 mM HEPES buffer (pH=7.5), 2 mM N7-acetyl-7-aminoheptanoate, 10 mM MgCl2, 1 mM ATP, and 1 mM NADPH. The assays were initiated by adding purified carboxylate reductase and phosphopantetheine transferase or the empty vector control to the assay buffer containing the N7-acetyl-7-aminoheptanoate then incubated at room temperature for 20 min. The consumption of NADPH was monitored by absorbance at 340 nm.

[3] = Carboxylate reductase activity assay, pimelate semialdehyde to heptanedial; settings: 2 mM pimelate semialdehyde, 1 mM ATP, 1 mM NADPH, enhanced by sfp gene product, room temperature, 20 min; against empty vector control (FIG. 13)
Description: The N-terminal His-tagged carboxylate reductase of SEQ ID NO 7 (see Example 4 and FIG. 7F) was assayed using pimelate semialdehyde as substrate. The enzyme activity assay was performed in triplicate in a buffer composed of a final concentration of 50 mM HEPES buffer (pH=7.5), 2 mM pimelate semialdehyde, 10 mM MgCl2, 1 mM ATP and 1 mM NADPH. The enzyme activity assay reaction was initiated by adding purified carboxylate reductase and phosphopantetheine transferase or the empty vector control to the assay buffer containing the pimelate semialdehyde and then incubated at room temperature for 20 min. The consumption of NADPH was monitored by absorbance at 340 nm.

[4] = Thioesterase enzyme activity assay, pimeloyl-CoA to pimelate; settings: 667 μM pimeloyl-CoA, 0.8 μM enzyme, 37° C., 20 min, pH 7.4; compared to empty vector control (FIG. 8)
Description: A sequence encoding an N-terminal His tag was added to the tesB gene from Escherichia coli that encodes a thioesterase (SEQ ID NO 1, see FIG. 7A), such that an N-terminal HIS tagged thioesterase could be produced. The modified tesB gene was cloned into a pET15b expression vector under control of the T7 promoter. The expression vector was transformed into a BL21[DE3] E. coli host. The resulting recombinant E. coli strain was cultivated at 37° C. in a 500 mL shake flask culture containing 50 mL Luria Broth (LB) media and antibiotic selection pressure, with shaking at 230 rpm. The culture was induced overnight at 17° C. using 0.5 mM IPTO.
The pellet from the induced shake flask culture was harvested via centrifugation. The pellet was resuspended and lysed in Y-Per™ solution (ThermoScientific, Rockford, Ill.). The cell debris was separated from the supernatant via centrifugation. […]
The enzyme activity assay was performed in triplicate in a buffer composed of 50 mM phosphate buffer (pH=7.4), 0.1 mM Ellman's reagent, and 667 μM of pimeloyl-CoA (as substrate). […] The release of Coenzyme A was monitored by absorbance at 412 nm. The absorbance associated with the substrate only control, which contained boiled enzyme, was subtracted from the active enzyme assay absorbance and compared to the empty vector control.

Row | Molecule | substrate acceptance, consumption of NADPH by absorbance at 340 nm [1] | substrate acceptance, consumption of NADPH by absorbance at 340 nm [2] | substrate acceptance, consumption of NADPH by absorbance at 340 nm [3] | substrate acceptance, release of Coenzyme A monitored by absorbance at 412 nm [4]
1 | B1 | accepted pimelate as substrate |  |  | 
2 | B2 | accepted pimelate as substrate | accepted N7-acetyl-7-aminoheptanoate as substrate | accepted pimelate semialdehyde as substrate | 
3 | B3 |  |  |  | accepted pimeloyl-CoA as substrate
